Results taken from article PMC2781463 (The Journal of Biological Chemistry, 2009).

Molecular target: Blom7α-His6 (pET-30a(+)) (human, UniProt Q7Z7F0-1 1-614)
Assay: pull-down

B1: GST-SNEV^Prp19-Pso4 (natural protein)
chain: MSLICSISNEVPEHPCVSPVSNHVYERRLIEKYIAENGTDPINNQPLSEEQLIDIKVAHPIRPKPPSATSIPAILKALQDEWDAVMLHSFTLRQQLQTTRQELSHALYQHDAACRVIARLTKEVTAAREALATLKPQAGLIVPQAVPSSQPSVVGAGEPMDLGELVGMTPEIIQKLQDKATVLTTERKKRGKTVPEELVKPEELSKYRQVASHVGLHSASIPGILALDLCPSDTNKILTGGADKNVVVFDKSSEQILATLKGHTKKVTSVVFHPSQDLVFSASPDATIRIWSVPNASCVQVVRAHESAVTGLSLHATGDYLLSSSDDQYWAFSDIQTGRVLTKVTDETSGCSLTCAQFHPDGLIFGTGTMDSQIKIWDLKERTNVANFPGHSGPITSIAFSENGYYLATAADDSSVKLWDLRKLKNFKTLQLDNNFEVKSLIFDQSGTYLALGGTDVQIYICKQWTEILHFTEHSGLTTGVAFGHHAKFIASTGMDRSLKFYSL
Question: Does B1 bind?
Answer: Result: binds
